This data set concerns HEK293 cells. The class given is cell-based, human. The conditions noted are these: luminescence from secreted Gluc in supernatant 24 hours after transfection of HEK293 cells; circular RNA encoding Gluc with the named IRES (UTR truncated to 675 nt).

B1: EV I (nucleic acid)
DNA: TTAGTACTTTCTCACGGGGATAGTGGTATCCCTCCCTAGTAATTTAGAAGACTTGAAAAACCGACCAATAGGCACCTCGCATCCAGCGGGGTAAAGGTCAAGCACTTCTGTTTCCCCGGGTCGAGTAGCGATAGACTGTGCCCACGGTCGAAGGTGAAACAACCCGTTATCCGACTTTGTACTTCGGGAAGCCTAGTACCACCAAAGATTATGCTTGGGGTTTCGCTCAGCACGACCCTGGTGTAGATCAGGCCGATGGATCACCGCATTCCTCACAGGCGACTGTGGCGGTGGTCGCGTGGCAGCCTGCCGATGGGGCAACCCATCGGACGCCAAGCATATGACAGGGTGTGAAGAGCCTACTGAGCTACAAAGTATTCCTCCGGCCCCTGAATGCGGCTAATCCCAACCACGGAGCATTTGCTACCAAACCAGGTAGTGGAATGTCGTAACGGGTAACTCTGTGGCGGAACCGACTACTTTGGGTGTCCGTGTTTCCTTTTAATTTATCATTCTGTATATGGTGACAACTATAGTGCTATCTCGATTTGCATTACTATTGTTGAGATTAAAACTTTATTACATTGTTGCATTTTACCCTTTGAGTGAGTTTTCACCTGAACAGATTAATTTACTCATCCTGTTTATATATTACAAGCAGAAATACTTGCAAAG
modifications: Enterovirus I
As to B1, the Expression amounted to 1.31E+08.

B2: EV C102 (nucleic acid, listed as Enterovirus sp.)
DNA: CTTTGTACGCCTGTTTTACATCCCCTCCCCCACGTAACTTTAGAAGCAATTCAACAAGTTCAATAGAGGGGGTACAAACCAGTATCACCACGAACAAGCACTTCTGTTTCCCCGGTGATTTTACATAAGCTGTGCCCACGGCTGAAAGTGAATGATCCGTTACCCGCTCGAGTACTTCGAAAAGCCTAGTATCGCTTTGGGATCTTCGACGCGTTGCGCTCAGCACTCTACCCCGAGTGTAGCTTAGGCTGATGAGTCTGGGCATTCCCCATCGGCGACGATGGCCCAGGCTGCGTTGGCGGCCTACCCATGGCTAACGCCATGGGACGCTAGTTGTGAACAAGGTGTGAAGAGCCTATTGAGCTACTCGAGAGTCCTCCGGCCCCTGAATGCGGCTAATCCCAACCACGGATCAGGTGCCTCCAACCCAGGAGGTGGCCTGTCGTAACGCGCAAGTCTGTGGCGGAACCGACTACTTTGGGTGTCCGTGTTTCCTTTTATCTTTTAAATGGCTGCTTATGGTGACAATCATAGATTGTTATCATAAAGCGAATTGGATTGGCCATCCGGTGAAATACAAACACATTATTTACTTGTTTGTTGGATTTACTCCGCTCACACAGCTTACTCCTAAGATAATATTTATTGTATTGCTGGTAAGGAGACACTATTATA
For the molecule B2, the Expression is recorded as 8.85E+07.

B3: PSIV IGR (nucleic acid)
DNA: GCTGACTATGTGATCTTATTAAAATTAGGTTAAATTTCGAGGTTAAAAATAGTTTTAATATTGCTATAGTCTTAGAGGTCTTGTATATTTATACTTACCACACAAGATGGACCGGAGCAGCCCTCCAATATCTAGTGTACCCTCG
modifications: Plautia stali intestine virus
As to B3, the Expression was 1.01E+05.

B4: EV J N125 (nucleic acid, listed as Enterovirus sp.)
DNA: CGGTACCTTTGTACGCCTATTTTACCCCCTTCCCCTTGTAACTTAGAAGCAAAGCAAACCAGTTCAATAGTAAGCAACACAACCCAGTGTTGTGACGAACAAGTACTTCTGTTTCCCCGGGAGGGTCTGACGGTAAGCTGTACCCACGGCTGAAGTATGACCTACCGTTAACCGGCTACCTACTTCGAGAAGTCTAGTAATACCATTGAAGTTTTGTTGGCGTTACGCTCAACACACTACCCCGTGTGTAGTTTTGGCTGATGAGTCACGGCATTCCCCACGGGCGACCGTGGCCGTGGCTGCGTTGCGGCCAACCAAGGGGCGCAAGCTCCTTGGACGTCACTTAACAGACATGGTGTGAAGAACCTATTGAGCTAGGTAGTAGTCCTCCGGCCCCTGAATGCGGCTAATCCTAACTCCGGAGCACATCAGTGCAACCCAGCATTTGGTGTGTTGTAATACGCAAGTCTGGAGCGGAACCGACTACTTTGGGTGTCCGTGTTTCCTGTTTTACCTTATTTGGCTGCTTATGGTGACAATTTGATATTGTTACCATATAGCTGTTGGATTGGCCATCCGGATTTTTGAAAGAGACCCAAAACTTTCTTCTCTACTTCAGATTCAAGTGCGAAGTTTTCCTTTTCATATATTACTTACTAATTTGAAGTACCAAAG
For B4, the Expression is 2.90E+07.

B5: EV F1 BEV 261 (nucleic acid, listed as Enterovirus sp.)
DNA: GCAATGCTGCACCAGTGCACTGGTACGCTAGTACCTTTTCACGGAGTAGATGGTATCCCTTACCCCGGAACCTAGAAGATTGCACACAAACCGACCAATAGGCGCACCGCATCCAGCCGTGCAGCGGTCAAGCACTTCTGTCTCCCCGGTCTGTAAAGATCGTTATCCGCCCGACCCACTACGAAAAGCCTAGTAACTGGCCAAGTGAACGCGAAGTTGCGCTCCGCCACAACCCCAGTGGTAGCTCTGGAAGATGGGGCTCGCACCACCCCCGTGGTAACACGGTTGCCTGCCCGCGTGTGCTTCCGGGTTCGGTCTCGTGCCGTTCACTTCAACTTCACGCAACCAGCCAAGAGCCTATTGTGCTGGGACGGTTTTCCTCCGGGGCCGTGAATGCTGCTAATCCCAACCTCCGAGCGTGTGCGCACAATCCAGTGTTGCTACGTCGTAACGCGTAAGTTGGAGGCGGAACAGACTACTTTCGGTACCCCGTGTTTCCTCTCATTTTATTTAATATTTTATGGTGACAATTGTTGAGATTTGCGCTCTTGCAACGTTGCCATTGAATATTGGCTTATACTATTTGGTTGCCTTTTACAAAACCTCTGATATACCCAGTTCTTACATTGATCTGCTTGTTTTTCTCAATTTGAAGTATAGACTACAAATAGCAAA
On to B5, for which the Expression came to 1.12E+07.

B6: EV A114 (nucleic acid, listed as Enterovirus sp.)
DNA: TGTGCGCCTGTTTTGAAACCCCCTCCCCCAACTCGAAACGTAGAAGTAATGTACACTACTGATCAGTAGCAGGCGTGGCGCACCAGCCATGTCTCGATCAAGCACTTCTGTTTCCCCGGACTGAGTATCAATAGACTGCTCACGCGGTTGAAGGTGAAAACGTCCGTTACCCGGCTAACTACTTCGAGAAACCTAGTAGCACCATAGAAACTGCAGAGTGTTTCGCTCAGCACTTCCCCCGTGTAGATCAGGTCGATGAGTCACTGCAATCCCCACGGGTGACCGTGGCAGTGGCTGCGTTGGCGGCCTGCCTATGGGGCAACCCATAGGACGCTCTAAGGTGGACATGGTGTGAAGAGTCTATTGAGCTAGTTAGTAGTCCTCCGGCCCCTGAATGCGGCTAATCCTAACTGTGGAGCGCATACTCCCAAACCAGGGAGCAGTGCGTCGTAACGGGCAACTCCGCAGCGGAACCGACTACTTTGGGTGTCCGTGTTTCCTTTTATTCCTATACTGGCTGCTTATGGTGACAATTGAGAGATTGTTACCATATAGCTATTGGATTGGCCATCCAGTGTGTAATAGAGCAATCATTTACCAATTTGTTGGATTTACTCCATTAACCCACACGTCTCTCAACACACTACATTTCATCTTACTACTGAACACTAGAAA
In turn, B6 yielded an Expression of 1.50E+08.

B7: EV D94 (nucleic acid, listed as Enterovirus sp.)
DNA: CGTGGCGGCCAGTACTCTGGTATCACGGTACCTTTGTACGCCTGTTTTATATCCCCTTCCCCCGCAACTTAGAAGAAAACAAATCAAGTTCACTAGGAGGGGGTACAAACCAGTACCACCACGAACAAGCACTTCTGTTTCCCCGGTGATGTCGTATAGACTGTAACCACGGTTGAAAACGATTGATCCGTTATCCGCTCTTGTACTTCGAAAAGCCCAGTATCACCTTGGAATCTTCGATGCGTTGCGCTCAGCACTCAACCCCAGAGTGTAGCTTAGGTCGATGAGTCTGGACACTCCTCACCGGCGACGGTGGTCCAGGCTGCGTTGGCGGCCTACCTGTGGTCCAAAGCCACAGGACGCTAGTTGTGAACAAGGTGTGAAGAGCCTATTGAGCTACAAGAGAATCCTCCGGCCCCTGAATGCGGCTAATCCTAACCACGGAGCAAGGGTACACAAACCAGTGTATATCTTGTCGTAACGCGCAAGTCTGTGGCGGAACCGACTACTTTGGGTGTCCGTGTTTCCTTTTGTTTTTATCATGGCTGCTTATGGTGACAATCTAAGATTGTTATCATATAGCTGTTGGATTGGCCATCCGGTAATTTATTGAGATTTGAGCATTTGCTTGTTTCTTCAACAATTTCACCTATTCATTGCATTTCAGCAGTCAAA
Turning to B7, the Expression is listed as 9.25E+07.

B8: EV 30 (nucleic acid, listed as Enterovirus sp.)
DNA: AAGCAAGGCAAACCTGACCAATAGTAGGTGTGGCACACCAGCCGCATTTTGGTCAAGCACTTCTGTTTCCCCGGACCGAGTATCAATAAGCTGCTCACGCGGCTGAAGGAGAAACCGTTCGTTACCCGACCAGCTACTTCGAGAAACCTAGTAACACTATGAACGTTGCGGAGTGTTTCGTTCAGCACTTCCCCCGTGTAGATCAGGTCGATGAGTCACCGCATTCCTCACGGGTGACCGTGGCGGTGGCTGCGTTGGCGGCCTGCCTACGGGTTCGCCCGTAGGACGCTCTAATACCGACATGGTGTGAAGAGTCCATTGAGCTAGCTGGTAGTCCTCCGGCCCCTGAATGCGGCTAATCCTAACTGCGGAGCAGGTGCTCACAGACCAGTGAGTAGCCTGTCGTAACGGGCAACTCTGCAGCGGAACCGACTACTTTGGGTGTTTTTCCTTTTTTCTTCTCTTATATTGGCTGCTTATGGTGACAATTAAAGAATTGTTACCATATAGCTATTGGATTGGCCATCCGGTGACGAGCAGAGCCATTGTTTACCTCTTTGTTGGATTTGTACCTTTGAACCACAAAGTCTTGAATACCATTCATCTCATTTTAAAGTTCAACTCAGCTAAAAGAAA
B8 came in with an Expression of 5.48E+06.

B9: SA5 (nucleic acid)
DNA: AGTACTTGGTATTCCGGTACCTTTGTACACCTATTTACAAACCCTACCCCTTGTAACCTTAGAAGCAATTATTTAACCGCTCACTAGGGGGTGTGCTATCCAAGCACATCAAGAGCAAGCACTTCTGTCTCCCCGGGAGGGGCTAATGGTACGCTGTGCCCACGGCGGAAATGAGCCCTACCGTTAACCGGCAGTCTACTTCGGGAAGCCCAGTAACTACATTGAAACTTTGAGGCGTTACACTCAGCACATAACCCCAATGTGTAGTTCTGGTCGATGAGCCTTGGCATCCCCCACAGGCGACTGTGGCCAAGGCTGCGTTGGCGGCCAGCCTGCGGACCAAAAGTCCGTAGGACGCCTAATTGTGGACATGGTGTGAAGAGCCTACTGAGCTAGACTGTAGTCCTCCGGCCCCTGAATGCGGCTAATCCTAACCCTGGAGCATCCGCGTGCAACCCAGTACGTAGGGTGTCGTAATGCGTAAGTCTGGGATGGAACCGACTACTTTGGGTGTCCGTGTTTCTTGTTTTTCATACTGGGTCGCTTATGGTTACAACTAATTGTTGTAATCATTGGCAGTGCGCGCTGACCACGCGATTATTGATATTTCCATTTGTTGGATACTCCAATAGTGTCAACTCATATACACAACTTTTACCACTGATCAAGATAAAA
In turn, B9 yielded an Expression of 1.61E+08.

(Values after patent US20230226096A1 (Orna Therapeutics, Inc., priority 2020, published 2023).)
